Test results taken from patent US20250277051A1 (HANGZHOU UNOGEN BIOTECH, published 2025).

Assays:
[1] = target: T1, recombinant human CD38 protein (human, UniProt P28907 43-300, biotin labeled); assay: ELISA, biotinylated recombinant human CD38 captured on a streptavidin plate, OD 450 nm
T1 construct: Biotin labeled and captured on streptavidin coated plates; also called human CD38 target

[2] = target: T2, recombinant mouse CD38 protein (mouse, UniProt P56528 45-304, limits assumed, biotin labeled); assay: ELISA, biotinylated recombinant mouse CD38 captured on a streptavidin plate, OD 450 nm
T2 construct: also called mouse recombinant CD38 protein; mouse CD38 antigen
T2 sequence (looked up): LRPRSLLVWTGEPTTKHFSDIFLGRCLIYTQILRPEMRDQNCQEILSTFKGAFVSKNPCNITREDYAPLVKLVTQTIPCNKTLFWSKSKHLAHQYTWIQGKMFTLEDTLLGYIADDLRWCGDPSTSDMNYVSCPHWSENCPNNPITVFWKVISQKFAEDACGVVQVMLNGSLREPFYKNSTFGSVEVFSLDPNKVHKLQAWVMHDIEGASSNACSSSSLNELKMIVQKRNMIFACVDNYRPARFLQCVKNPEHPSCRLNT

[3] = target: T3, recombinant cynomolgus monkey CD38 protein (cynomolgus monkey, UniProt Q5VAN0 44-301, biotin labeled); assay: ELISA, biotinylated recombinant cynomolgus monkey CD38 captured on a streptavidin plate, OD 450 nm
T3 construct: Biotin labeled and captured on a streptavidin coated plate; also called cynomolgus monkey CD38 antigen; cynomolgus recombinant CD38 protein

[4] = target: T1, recombinant human CD38 protein; assay: ELISA on recombinant human CD38, OD 450 nm
[5] = target: T1, recombinant human CD38 protein; assay: ELISA on recombinant human CD38, OD 450 nm; remark: listed apart in the source
[6] = target: T4, recombinant cynomolgus monkey CD3 delta and epsilon domain protein (cynomolgus monkey, UniProt Q95LI5 22-117; Q95LI8 22-105, biotin labeled); assay: ELISA, recombinant antigen on plate
T4 construct: Biotin labeled and captured on a streptavidin coated ELISA plate; also called cynomolgus monkey recombinant CD3 protein, consisting of CD3 epsilon and CD3 delta chains

[7] = target: T5, recombinant human CD3 delta and epsilon domain protein (human, UniProt P07766 23-126; P04234 22-105, biotin labeled); assay: ELISA, biotinylated recombinant human CD3 epsilon/delta captured on a streptavidin plate, OD 450 nm
T5 construct: Biotin labeled and captured on a streptavidin coated ELISA plate; also called human recombinant CD3 protein, consisting of CD3 epsilon and CD3 delta chains

[8] = target: T4, recombinant cynomolgus monkey CD3 delta …; assay: ELISA, biotinylated recombinant cynomolgus monkey CD3 epsilon/delta captured on a streptavidin plate, OD 450 nm

T4 sequence (Q95LI5 22-117, stated change not applied, chain 1 of 2): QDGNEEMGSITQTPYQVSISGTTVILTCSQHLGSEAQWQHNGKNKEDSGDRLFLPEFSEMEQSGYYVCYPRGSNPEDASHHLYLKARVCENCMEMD
T4 sequence (Q95LI8 22-105, stated change not applied, chain 2 of 2): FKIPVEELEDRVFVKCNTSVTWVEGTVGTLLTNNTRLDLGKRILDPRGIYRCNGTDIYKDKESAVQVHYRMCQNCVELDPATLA
T5 sequence (P07766 23-126, stated change not applied, chain 1 of 2): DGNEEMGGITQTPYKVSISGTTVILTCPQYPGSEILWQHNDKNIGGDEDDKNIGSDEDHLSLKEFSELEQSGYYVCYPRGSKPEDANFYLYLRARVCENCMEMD
T5 sequence (P04234 22-105, stated change not applied, chain 2 of 2): as the sequence (Q95LI8 22-105, stated change not applied, chain 2 of 2) above, with V5I, K15N, V20I, T32S, N33D, N34I, A64T, N74S, L83V counted along it

B1: SEQ ID NO 6 (VHH)
VHH: EVQLQESGGGSVQAGGSLTLSCTASGLLFRLASMGWYRQAPGKERELIATITVGGKTNYKDSVQGRFIITRDNTGDNTKSTVTLQMNRLKPEDTAVYYCNTASPAVGADTWGQGTRVTVSS
notes: also called CD38 5F21 VHO1
B1: binds [1]; no binding (tested: about 60 nM) [2]; no binding (tested: about 30 nM) [3].

B2: SEQ ID NO 18 (VHH)
VHH: QVTLKESGPVLVKPTETLTLTCTGSGSRFDNYAMGWFRQPPGKEREFLAAISWSSGTTRYSTSLKSRLTISRDTSKSQVVLTMTNMDPVDTATYYCAARYQPRYYDSGDMDGYEYDNWGQGTLVTVSS
notes: VHO single domain; also called CD38 5FIO VHO3
B2: binds [4].

B3: SEQ ID NO 5 (VHH)
VHH: EVQLQESGGGLVQAGGSLRLSCTGSGRTFRNYPMAWFRQAPGKEREFVAGITWVGASTLYADFAKGRFTISRDNAKNTVYLQMNSLKPEDTAVYSCAAGRGIVAGRIPAEYADWGQGTQVTVSS
notes: also called CD38 5F1K VHO1
B3: binds [1]; no binding (tested: about 60 nM) [2]; binds [3].

B4: SEQ ID NO 24 (VHH)
VHH: DVQLQESGGGLVQAGGSLRLSCTGSGRTFYLYPMAWFRQAPGKEREFVAGITWVGASTNYADFAKGRFTISRDNAKNTVYLQMNSLKPEDTAVYSCAAGRGITAGRIPAEYADWGQGTQVTVSS
notes: VHO single domain; also called CD38 5FIOK VHO5
B4: binds [4].

B5: SEQ ID NO 4 (VHH)
VHH: EVQLQESGGGLVQAGHSLRLSCVGSGSRFDNYAMGWFRQAPGKEREFVAAISWSSGTTRYLDTVKGRFTISRDNAKSTVYLQMNSLKPEDTAVYYCAARYQPRYYDSGDMDGYEYDNWGQGTQVTVSS
notes: Variable-heavy-only (VHO) single domain; also called CD38 5FIO VHO1
In the case of B5, the binding result [1] is reported as “binds”, the binding result [2] is reported as “binds” and the “EC50 (read off the curve)” value [3] is reported as roughly 400 pM.

B6: SEQ ID NO 20 (VHH)
VHH: DVQLQESGGGLVQAGHSLRLSCVGSGDRFDNYAMGWFRQAPGKEREFVAAISWSSGTTRYLDTVKGRFTISRDNAKSTVYLQMNSLKPEDTAVYYCAARYQNRFYDSGDMDGYEYDNWGQGTQVTVSS
notes: VHO single domain; also called CD38 5FIO VHO5
B6: binds [4].

B7: SEQ ID NO: 4×SP34 v8 (bispecific antibody, V domains shown)
VHH: EVQLQESGGGLVQAGHSLRLSCVGSGSRFDNYAMGWFRQAPGKEREFVAAISWSSGTTRYLDTVKGRFTISRDNAKSTVYLQMNSLKPEDTAVYYCAARYQPRYYDSGDMDGYEYDNWGQGTQVTVSS
VH: EVQLVESGGGLVQPGGSLKLSCAASGFTFNTYAMNWVRQAPGKGLEWVARIRSKYNNYATYYADSVKDRFTISRDDSKNTAYLQMNNLKTEDTAVYYCVRHGNFGNSYVAWFAYWGQGTLVTVSS
VL: QTVVTQEPSLTVSPGGTVTLTCRSSTGAVTTSNYANWVQQKPGQAPRGLIGGTNKRAPGTPARFSGSLLGGKAALTLSGVQPEDEAEYYCALWYSNLWVFGGGTKLTVL
notes: CD38 VHO arm paired with a CD3 arm
In the case of B7, the “EC50 (read off the curve)” value [1] is reported as roughly 100 pM.

B8: SEQ ID NO 21 (VHH)
VHH: QMQLVQSGAEVKKTGSSVKVSCKGSGRTFRNYPMAWFRQAPGQEREFMGGITWVGASTLYAQKAQDRVTITRDRSMSTAYMELSSLRSEDTAMYSCAAGRGIVAGRIPAEYADWGQGTLVTVSS
notes: VHO single domain; also called CD38 5FIOK VHO2
B8: binds [4].

B9: SEQ ID NO 29 (VHH)
VHH: DVQLQESGGGSVQAGGSLTLSCTASGWLFRLASMGWYRQAPGKEREMIAVITTGGRTNYKDSVQGRFIITRDNTKSTVTLQMNRLKPEDTAVYYCNTSMPVVGADEWGQGTRVTVSS
notes: VHO single domain; also called CD38 5F21 VHO5
B9: binds [5].

B10: SEQ ID NOs: 2 and 3 (mAb) (antibody, V domains shown)
VH: QVQLVQSGAEVAKPGTSVKLSCKASGYTFTDYWMQWVKQRPGQGLEWIGTIYPGDGDTGYAQKFQGKATLTADKSSKTVYMHLSSLASEDSAVYYCARGDYYGSNSLDYWGQGTSVTVSS
VL: DIVMTQSHLSMSTSLGDPVSITCKASQDVSTVVAWYQQKPGQSPRRLIYSASYRYIGVPDRFTGSGAGTDFTFTISSVQAEDLAVYYCQQHYSPPYTFGGGTKLEIK
notes: also called CD38 LC1; CD38 HC1
B10: no binding (tested: about 60 nM) [2].

B11: SEQ ID NO 17 (VHH)
VHH: QVQLVQSGAEVKKPGASVKVSCKASGSRFDNYAMGWFRQAPGQEREFMGAISWSSGTTRYAQKVQGRVTMTRDTSTSTVYMELSSLRSEDTAVYYCAARYQPRYYDSGDMDGYEYDNWGQGTLVTVSS
notes: VHO single domain; also called CD38 5FIO VHO2
B11: binds [4].

B12: SP34 (antibody, V domains shown)
VH: EVQLVESGGGLVQPGGSLKLSCAASGFTFNTYAMNWVRQAPGKGLEWVARIRSKYNNYATYYADSVKDRFTISRDDSKNTAYLQMNNLKTEDTAVYYCVRHGNFGNSYVSWFAYWGQGTLVTVSS
VL: QTVVTQEPSLTVSPGGTVTLTCRSSTGAVTTSNYANWVQQKPGQAPRGLIGGTNKRAPGTPARFSGSLLGGKAALTLSGVQPEDEAEYYCALWYSNLWVFGGGTKLTVL
notes: also called positive control anti-CD3 antibody
B12: binds [6].

B13: SP34 v8 (antibody, V domains shown)
VH: EVQLVESGGGLVQPGGSLKLSCAASGFTFNTYAMNWVRQAPGKGLEWVARIRSKYNNYATYYADSVKDRFTISRDDSKNTAYLQMNNLKTEDTAVYYCVRHGNFGNSYVAWFAYWGQGTLVTVSS
VL: QTVVTQEPSLTVSPGGTVTLTCRSSTGAVTTSNYANWVQQKPGQAPRGLIGGTNKRAPGTPARFSGSLLGGKAALTLSGVQPEDEAEYYCALWYSNLWVFGGGTKLTVL
notes: also called SP34 v8 LC; SP34 v8 HC
In the case of B13, the binding result [7] is reported as “binds” and the “EC50 (read off the curve)” value [8] is reported as roughly 80 pM.
